From article PMC3334289 (Fems Microbiology Letters, 2012)

Molecular target: the molecule itself
Assay: sedimentation of polymers

B1: His6-tagged MreB (MreB-HIS) (natural protein, E. coli, UniProt P0A9X4 1-347, looked up)
chain: MLKKFRGMFSNDLSIDLGTANTLIYVKGQGIVLNEPSVVAIRQDRAGSPKSVAAVGHDAKQMLGRTPGNIAAIRPMKDGVIADFFVTEKMLQHFIKQVHSNSFMRPSPRVLVCVPVGATQVERRAIRESAQGAGAREVFLIEEPMAAAIGAGLPVSEATGSMVVDIGGGTTEVAVISLNGVVYSSSVRIGGDRFDEAIINYVRRNYGSLIGEATAERIKHEIGSAYPGDEVREIEVRGRNLAEGVPRGFTLNSNEILEALQEPLTGIVSAVMVALEQCPPELASDISERGMVLTGGGALLRNLDRLLMEETGIPVVVAEDPLTCVARGGGKALEMIDMHGGDLFSEE
binding result: binds
